Data published in the Human Domainome abundance scans (Beltran et al. 2025).
± gives the uncertainty stated by the source.

assay: abundance fitness (aPCA) (normalised: wild type 0, dead -1); higher = more abundant; growth selection in yeast, the domain comes from the species named; conditions: Homo sapiens

Q: With “Scaffold attachment factor B1 P72V, Q15424” as the substance, how does the abundance fitness read?
A: -0.116 ± 0.053

Q: For “Scaffold attachment factor B1 R29T, Q15424”, which abundance fitness is on record?
A: -0.141 ± 0.062

Q: Which abundance fitness does the source give for “Scaffold attachment factor B1 L31E, Q15424” here?
A: -0.496 ± 0.076

Q: Which abundance fitness does the source give for “Scaffold attachment factor B1 L61T, Q15424” here?
A: -0.393 ± 0.078

Q: Which abundance fitness does the source give for “Scaffold attachment factor B1 A64P, Q15424” here?
A: -0.603 ± 0.087

Q: For “Scaffold attachment factor B1 V48N, Q15424”, which abundance fitness is on record?
A: -0.362 ± 0.11

Q: Which abundance fitness does the source give for “Scaffold attachment factor B1 A64R, Q15424” here?
A: -0.236 ± 0.048

Q: For “Scaffold attachment factor B1 I77N, Q15424”, which abundance fitness is on record?
A: -0.235 ± 0.073

Q: With “Scaffold attachment factor B1 L57N, Q15424” as the substance, how does the abundance fitness read?
A: -0.521 ± 0.067

Q: Which abundance fitness does the source give for “Scaffold attachment factor B1 N71Y, Q15424” here?
A: -0.448 ± 0.094

Q: With “Scaffold attachment factor B1 T26L, Q15424” as the substance, how does the abundance fitness read?
A: -0.518 ± 0.15

Q: Which abundance fitness does the source give for “Scaffold attachment factor B1 D33H, Q15424” here?
A: -0.262 ± 0.1

Q: With “Scaffold attachment factor B1 R30S, Q15424” as the substance, how does the abundance fitness read?
A: -0.133 ± 0.062

Q: For “Scaffold attachment factor B1 K63H, Q15424”, which abundance fitness is on record?
A: -0.541 ± 0.1

Q: Which abundance fitness does the source give for “Scaffold attachment factor B1 N53G, Q15424” here?
A: -0.08 ± 0.057

Q: Which abundance fitness does the source give for “Scaffold attachment factor B1 S51Y, Q15424” here?
A: -0.472 ± 0.11

Q: With “Scaffold attachment factor B1 L34I, Q15424” as the substance, how does the abundance fitness read?
A: -0.433 ± 0.096

Q: Which abundance fitness does the source give for “Scaffold attachment factor B1 T26S, Q15424” here?
A: -0.452 ± 0.099

Q: With “Scaffold attachment factor B1 I37M, Q15424” as the substance, how does the abundance fitness read?
A: -0.057 ± 0.061

Q: Which abundance fitness does the source give for “Scaffold attachment factor B1 N53I, Q15424” here?
A: -0.27 ± 0.084

Q: With “Scaffold attachment factor B1 S50H, Q15424” as the substance, how does the abundance fitness read?
A: -0.099 ± 0.072

Q: Which abundance fitness does the source give for “Scaffold attachment factor B1 N71W, Q15424” here?
A: -0.39 ± 0.057

Q: For “Scaffold attachment factor B1 I77C, Q15424”, which abundance fitness is on record?
A: -0.187 ± 0.061

Q: For “Scaffold attachment factor B1 S79M, Q15424”, which abundance fitness is on record?
A: -0.136 ± 0.063

Q: For “Scaffold attachment factor B1 D49G, Q15424”, which abundance fitness is on record?
A: -0.444 ± 0.062

Q: For “Scaffold attachment factor B1 R29P, Q15424”, which abundance fitness is on record?
A: -0.364 ± 0.063

Q: For “Scaffold attachment factor B1 G70R, Q15424”, which abundance fitness is on record?
A: -0.196 ± 0.053

Q: For “Scaffold attachment factor B1 N53P, Q15424”, which abundance fitness is on record?
A: -0.284 ± 0.06

Q: With “Scaffold attachment factor B1 R40Q, Q15424” as the substance, how does the abundance fitness read?
A: -0.152 ± 0.06

Q: Which abundance fitness does the source give for “Scaffold attachment factor B1 R60W, Q15424” here?
A: -1.17 ± 0.065

Q: With “Scaffold attachment factor B1 R60M, Q15424” as the substance, how does the abundance fitness read?
A: -0.38 ± 0.065

Q: With “Scaffold attachment factor B1 E68V, Q15424” as the substance, how does the abundance fitness read?
A: -0.265 ± 0.053

Q: For “Scaffold attachment factor B1 E74D, Q15424”, which abundance fitness is on record?
A: -0.312 ± 0.074

Q: With “Scaffold attachment factor B1 A41T, Q15424” as the substance, how does the abundance fitness read?
A: -0.164 ± 0.059

Q: For “Scaffold attachment factor B1 K62E, Q15424”, which abundance fitness is on record?
A: -0.287 ± 0.053

Q: With “Scaffold attachment factor B1 L34D, Q15424” as the substance, how does the abundance fitness read?
A: -0.632 ± 0.081

Q: With “Scaffold attachment factor B1 G52T, Q15424” as the substance, how does the abundance fitness read?
A: -0.939 ± 0.078

Q: Which abundance fitness does the source give for “Scaffold attachment factor B1 S50F, Q15424” here?
A: -0.259 ± 0.08

Q: With “Scaffold attachment factor B1 V56Q, Q15424” as the substance, how does the abundance fitness read?
A: -0.249 ± 0.083

Q: Which abundance fitness does the source give for “Scaffold attachment factor B1 K54F, Q15424” here?
A: -0.249 ± 0.062

Q: With “Scaffold attachment factor B1 V48E, Q15424” as the substance, how does the abundance fitness read?
A: -0.231 ± 0.075

Q: For “Scaffold attachment factor B1 G70S, Q15424”, which abundance fitness is on record?
A: -0.197 ± 0.057

Q: Which abundance fitness does the source give for “Scaffold attachment factor B1 E66Q, Q15424” here?
A: -0.014 ± 0.078

Q: For “Scaffold attachment factor B1 V36W, Q15424”, which abundance fitness is on record?
A: -0.37 ± 0.07

Q: For “Scaffold attachment factor B1 A64F, Q15424”, which abundance fitness is on record?
A: -0.317 ± 0.089

Q: For “Scaffold attachment factor B1 T78L, Q15424”, which abundance fitness is on record?
A: -0.091 ± 0.057

Q: Which abundance fitness does the source give for “Scaffold attachment factor B1 E80Q, Q15424” here?
A: -0.274 ± 0.1

Q: With “Scaffold attachment factor B1 R40G, Q15424” as the substance, how does the abundance fitness read?
A: -0.732 ± 0.056

Q: For “Scaffold attachment factor B1 G52L, Q15424”, which abundance fitness is on record?
A: -1.34 ± 0.086

Q: Which abundance fitness does the source give for “Scaffold attachment factor B1 L31S, Q15424” here?
A: -0.547 ± 0.068

Q: For “Scaffold attachment factor B1 I65Y, Q15424”, which abundance fitness is on record?
A: -0.535 ± 0.14

Q: For “Scaffold attachment factor B1 I77L, Q15424”, which abundance fitness is on record?
A: -0.227 ± 0.064

Q: For “Scaffold attachment factor B1 L61R, Q15424”, which abundance fitness is on record?
A: -0.644 ± 0.057

Q: For “Scaffold attachment factor B1 S51C, Q15424”, which abundance fitness is on record?
A: -0.217 ± 0.07

Q: With “Scaffold attachment factor B1 I65R, Q15424” as the substance, how does the abundance fitness read?
A: -0.287 ± 0.045

Q: With “Scaffold attachment factor B1 D49T, Q15424” as the substance, how does the abundance fitness read?
A: -0.552 ± 0.081

Q: Which abundance fitness does the source give for “Scaffold attachment factor B1 L31C, Q15424” here?
A: -0.553 ± 0.069

Q: For “Scaffold attachment factor B1 R44D, Q15424”, which abundance fitness is on record?
A: -0.156 ± 0.1

Q: With “Scaffold attachment factor B1 S50M, Q15424” as the substance, how does the abundance fitness read?
A: -0.302 ± 0.097

Q: Which abundance fitness does the source give for “Scaffold attachment factor B1 M58C, Q15424” here?
A: -0.289 ± 0.083

Q: Which abundance fitness does the source give for “Scaffold attachment factor B1 M58K, Q15424” here?
A: -0.253 ± 0.086

Q: With “Scaffold attachment factor B1 P72L, Q15424” as the substance, how does the abundance fitness read?
A: -0.14 ± 0.048

Q: For “Scaffold attachment factor B1 S51F, Q15424”, which abundance fitness is on record?
A: -0.389 ± 0.085

Q: With “Scaffold attachment factor B1 R30D, Q15424” as the substance, how does the abundance fitness read?
A: -0.384 ± 0.092

Q: With “Scaffold attachment factor B1 G70L, Q15424” as the substance, how does the abundance fitness read?
A: -0.22 ± 0.051

Q: With “Scaffold attachment factor B1 K54Y, Q15424” as the substance, how does the abundance fitness read?
A: -0.157 ± 0.059

Q: Which abundance fitness does the source give for “Scaffold attachment factor B1 T26I, Q15424” here?
A: -0.314 ± 0.14

Q: With “Scaffold attachment factor B1 G52N, Q15424” as the substance, how does the abundance fitness read?
A: -1.45 ± 0.23

Q: Which abundance fitness does the source give for “Scaffold attachment factor B1 I65P, Q15424” here?
A: -0.559 ± 0.051

Q: For “Scaffold attachment factor B1 S50R, Q15424”, which abundance fitness is on record?
A: -0.365 ± 0.06

Q: With “Scaffold attachment factor B1 T78Y, Q15424” as the substance, how does the abundance fitness read?
A: -0.173 ± 0.075

Q: For “Scaffold attachment factor B1 R46Y, Q15424”, which abundance fitness is on record?
A: -0.463 ± 0.064

Q: Which abundance fitness does the source give for “Scaffold attachment factor B1 R35D, Q15424” here?
A: -0.12 ± 0.08

Q: For “Scaffold attachment factor B1 V36N, Q15424”, which abundance fitness is on record?
A: -0.275 ± 0.064

Q: With “Scaffold attachment factor B1 R30A, Q15424” as the substance, how does the abundance fitness read?
A: -0.289 ± 0.066

Q: For “Scaffold attachment factor B1 L43M, Q15424”, which abundance fitness is on record?
A: -0.402 ± 0.075

Q: With “Scaffold attachment factor B1 V36C, Q15424” as the substance, how does the abundance fitness read?
A: -0.281 ± 0.072

Q: With “Scaffold attachment factor B1 R29H, Q15424” as the substance, how does the abundance fitness read?
A: -0.262 ± 0.088

Q: With “Scaffold attachment factor B1 L39K, Q15424” as the substance, how does the abundance fitness read?
A: -0.996 ± 0.072

Q: Which abundance fitness does the source give for “Scaffold attachment factor B1 A41C, Q15424” here?
A: -0.317 ± 0.08

Q: Which abundance fitness does the source give for “Scaffold attachment factor B1 P72F, Q15424” here?
A: -0.185 ± 0.098

Q: With “Scaffold attachment factor B1 I65G, Q15424” as the substance, how does the abundance fitness read?
A: -0.564 ± 0.057

Q: With “Scaffold attachment factor B1 E74L, Q15424” as the substance, how does the abundance fitness read?
A: -0.125 ± 0.053

Q: Which abundance fitness does the source give for “Scaffold attachment factor B1 R40V, Q15424” here?
A: -0.123 ± 0.067

Q: For “Scaffold attachment factor B1 S55F, Q15424”, which abundance fitness is on record?
A: -0.223 ± 0.054

Q: Which abundance fitness does the source give for “Scaffold attachment factor B1 T26N, Q15424” here?
A: -0.936 ± 0.37

Q: With “Scaffold attachment factor B1 L34V, Q15424” as the substance, how does the abundance fitness read?
A: -0.738 ± 0.058

Q: With “Scaffold attachment factor B1 E66M, Q15424” as the substance, how does the abundance fitness read?
A: -0.137 ± 0.046

Q: With “Scaffold attachment factor B1 D67K, Q15424” as the substance, how does the abundance fitness read?
A: -0.258 ± 0.091

Q: For “Scaffold attachment factor B1 D49N, Q15424”, which abundance fitness is on record?
A: -0.14 ± 0.061

Q: Which abundance fitness does the source give for “Scaffold attachment factor B1 R40P, Q15424” here?
A: -0.763 ± 0.074

Q: For “Scaffold attachment factor B1 R35C, Q15424”, which abundance fitness is on record?
A: -0.4 ± 0.073

Q: For “Scaffold attachment factor B1 V36Y, Q15424”, which abundance fitness is on record?
A: -0.366 ± 0.072

Q: For “Scaffold attachment factor B1 V36Q, Q15424”, which abundance fitness is on record?
A: -0.417 ± 0.085

Q: With “Scaffold attachment factor B1 K45V, Q15424” as the substance, how does the abundance fitness read?
A: -0.929 ± 0.46

Q: For “Scaffold attachment factor B1 G27D, Q15424”, which abundance fitness is on record?
A: -0.027 ± 0.08

Q: For “Scaffold attachment factor B1 I65C, Q15424”, which abundance fitness is on record?
A: -0.141 ± 0.087

Q: With “Scaffold attachment factor B1 R46V, Q15424” as the substance, how does the abundance fitness read?
A: -0.797 ± 0.074

Q: For “Scaffold attachment factor B1 R30W, Q15424”, which abundance fitness is on record?
A: -0.444 ± 0.053

Q: Which abundance fitness does the source give for “Scaffold attachment factor B1 E59D, Q15424” here?
A: -0.15 ± 0.074

Q: Which abundance fitness does the source give for “Scaffold attachment factor B1 E59W, Q15424” here?
A: -0.408 ± 0.11

Q: For “Scaffold attachment factor B1 R29A, Q15424”, which abundance fitness is on record?
A: -0.465 ± 0.072

Q: Which abundance fitness does the source give for “Scaffold attachment factor B1 L43V, Q15424” here?
A: -0.714 ± 0.06

Q: For “Scaffold attachment factor B1 L39H, Q15424”, which abundance fitness is on record?
A: -0.766 ± 0.12

Q: With “Scaffold attachment factor B1 E66G, Q15424” as the substance, how does the abundance fitness read?
A: -0.218 ± 0.052

Q: With “Scaffold attachment factor B1 A64G, Q15424” as the substance, how does the abundance fitness read?
A: -0.527 ± 0.053

Q: Which abundance fitness does the source give for “Scaffold attachment factor B1 L39I, Q15424” here?
A: -0.264 ± 0.1

Q: For “Scaffold attachment factor B1 I77E, Q15424”, which abundance fitness is on record?
A: -0.102 ± 0.092

Q: Which abundance fitness does the source give for “Scaffold attachment factor B1 G52A, Q15424” here?
A: -0.538 ± 0.069

Q: Which abundance fitness does the source give for “Scaffold attachment factor B1 S32R, Q15424” here?
A: -0.114 ± 0.057
